Where two headings read alike, the source gives them in different places. Where no end group is shown, it is not given here.
T1: human GIP receptor (human, UniProt P48546 22-466)
T1 sequence (looked up): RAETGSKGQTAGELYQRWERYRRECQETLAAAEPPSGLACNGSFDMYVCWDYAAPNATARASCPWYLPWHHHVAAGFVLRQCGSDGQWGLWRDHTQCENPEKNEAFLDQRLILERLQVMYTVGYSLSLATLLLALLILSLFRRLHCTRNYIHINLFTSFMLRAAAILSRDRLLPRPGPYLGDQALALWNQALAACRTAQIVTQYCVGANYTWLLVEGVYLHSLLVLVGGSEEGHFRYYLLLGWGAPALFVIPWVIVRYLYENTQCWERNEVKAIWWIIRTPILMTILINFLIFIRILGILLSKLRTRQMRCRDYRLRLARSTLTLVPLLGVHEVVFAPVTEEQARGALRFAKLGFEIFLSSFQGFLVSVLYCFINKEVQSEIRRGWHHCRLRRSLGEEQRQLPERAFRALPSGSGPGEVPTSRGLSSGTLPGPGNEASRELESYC

T2: mouse GIP receptor (mouse, UniProt Q0P543 19-460)
T2 sequence (looked up): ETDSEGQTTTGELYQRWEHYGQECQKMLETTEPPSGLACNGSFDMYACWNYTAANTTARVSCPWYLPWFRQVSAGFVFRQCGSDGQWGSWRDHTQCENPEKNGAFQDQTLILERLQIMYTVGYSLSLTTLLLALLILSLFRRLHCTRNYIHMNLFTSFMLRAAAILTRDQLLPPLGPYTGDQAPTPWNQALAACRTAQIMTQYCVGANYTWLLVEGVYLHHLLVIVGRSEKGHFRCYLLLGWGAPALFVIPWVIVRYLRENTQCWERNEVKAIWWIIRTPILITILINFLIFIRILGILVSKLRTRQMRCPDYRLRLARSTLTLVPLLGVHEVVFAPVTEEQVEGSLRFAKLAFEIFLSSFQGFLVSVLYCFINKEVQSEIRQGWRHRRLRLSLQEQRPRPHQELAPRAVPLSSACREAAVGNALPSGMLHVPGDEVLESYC


Legend:
Assay in all cases: cell-based or functional assay
[1] = target: T1, human GIP receptor
[2] = target: T3, human GLP1 receptor (human, UniProt P43220 24-463)
[3] = target: T3, human GLP1 receptor; remark: listed apart in the source
[4] = target: T1, human GIP receptor; remark: listed apart in the source
[5] = target: T2, mouse GIP receptor

| Binder | EC50, HTRF cAMP bioassay [1] [nM] | EC50, HTRF cAMP bioassay [2] [nM] | EC50, HTRF cAMP bioassay [3] [nM] | EC50, HTRF cAMP bioassay [4] [nM] | EC50, HTRF cAMP bioassay [5] [nM] | IC50, HTRF cAMP bioassay [5] [nM] |
| --- | --- | --- | --- | --- | --- | --- |
| YGEGTFTSDYSIYLDKIAQKAFVQWLIAGGPSSGAPPPS (ends and bridges not checked) [SP02: GLP1/GIP receptor co-agonist analogue] | 3.69 | – | – | – | – | – |
| YGEGTFTSDYSIQLDKIAQKAFVQWLIAGGPSSGAPPPS (ends and bridges not checked) [SP03: GLP1/GIP receptor co-agonist analogue] | 22 | 0.225 | – | – | – | – |
| P26: SP02-bispecific antibodies for GLP1R and GIPR (bispecific antibody, human IgG1, kappa) chain 1: YGEGTFTSDYSIYLDKIAQKAFVQWLIAGGPSSGAPPPSGGGGSGGGGSGGGGSDIVMTQSPSSLTVTAGEKVTMSCKSSQSLLNSGNQKNYLTWYQQKPGQPPKLLISWASTRDSGVPDRFTGSGSGTDFTLTISSVQAEDLAVYYCQNDYSYPLTFGAGTKLELKRTVAAPSVFIFPPSDEQLKSGTASVVCLLNNFYPREAKVQWKVDNALQSGNSQESVTEQDSKDSTYSLSSTLTLSKADYEKHKVYACEVTHQGLSSPVTKSFNRGEC chain 2: YGEGTFTSDYSIYLDKIAQKAFVQWLIAGGPSSGAPPPSGGGGSGGGGSGGGGSQIVLTQSPAIMSASPGEKVTMTCSASSRVTYMHWYQQRSGTSPKRWIYDTSKLASGVPARFSGSGSGTSYSLTISSMEAEDAATYYCQQWGNNPQYTFGGGTRLEIKRTVAAPSVFIFPPSDEQLKSGTASVVCLLNNFYPREAKVQWKVDNALQSGNSQESVTEQDSKDSTYSLSSTLTLSKADYEKHKVYACEVTHQGLSSPVTKSFNRGEC chain 3: not shown chain 4: not shown | – | – | 0.12 | 48 | 0.35 | – |
| P28: SP02-amG2 (antibody, human IgG4 S228P, kappa, F234A L235A) light: YGEGTFTSDYSIYLDKIAQKAFVQWLIAGGPSSGAPPPSGGGGSGGGGSGGGGSDIVMTQSPSSLTVTAGEKVTMSCKSSQSLLNSGNQKNYLTWYQQKPGQPPKLLISWASTRDSGVPDRFTGSGSGTDFTLTISSVQAEDLAVYYCQNDYSYPLTFGAGTKLELKRTVAAPSVFIFPPSDEQLKSGTASVVCLLNNFYPREAKVQWKVDNALQSGNSQESVTEQDSKDSTYSLSSTLTLSKADYEKHKVYACEVTHQGLSSPVTKSFNRGEC heavy: not shown | – | – | 1.25 | 69 | 0.42 | – |
| P46: SP01-amG3 (antibody, human IgG4 S228P, kappa, F234A L235A) light: HGEGTFTSDVSSYLEEQAAKEFIAWLVKGGGGGGGSGGGGSGGGGSDVVMTQTPLSLPVSLGDQASISCRSSQSLVHSNGDTYLHWYLQKPGQSPKLLIYKVSNRFSGVPDRFSGSGSGTDFTLKISRVEAADLGVYFCSQSTHVPPFTFGGGTKLEIKRTVAAPSVFIFPPSDEQLKSGTASVVCLLNNFYPREAKVQWKVDNALQSGNSQESVTEQDSKDSTYSLSSTLTLSKADYEKHKVYACEVTHQGLSSPVTKSFNRGEC heavy: not shown | – | – | 0.034 | – | – | 11.2 |
